From article PMC7943762, “Bmp8a is an essential positive regulator of antiviral immunity in zebrafish”

How the values were obtained:
rStat1b [1] = molecular target: T1, rStat1b (Danio rerio (zebrafish), UniProt B0S789 1-725); assay: competition; unlabeled competitor vs biotin P2 probe; little change; Beyotime GS009 EMSA/Gel-Shift binding buffer with poly(dI-dC), 25 C, 25 min preincubation then 30 min with 0.5 uM biotin probe (competitor stated as 0.5 uM), native 6% PAGE; salt and pH not stated; conditions: protein: recombinant; tags: His (pET-28a; Ni-NTA, anti-His); chain copies: 2; blunt
T1 sequence: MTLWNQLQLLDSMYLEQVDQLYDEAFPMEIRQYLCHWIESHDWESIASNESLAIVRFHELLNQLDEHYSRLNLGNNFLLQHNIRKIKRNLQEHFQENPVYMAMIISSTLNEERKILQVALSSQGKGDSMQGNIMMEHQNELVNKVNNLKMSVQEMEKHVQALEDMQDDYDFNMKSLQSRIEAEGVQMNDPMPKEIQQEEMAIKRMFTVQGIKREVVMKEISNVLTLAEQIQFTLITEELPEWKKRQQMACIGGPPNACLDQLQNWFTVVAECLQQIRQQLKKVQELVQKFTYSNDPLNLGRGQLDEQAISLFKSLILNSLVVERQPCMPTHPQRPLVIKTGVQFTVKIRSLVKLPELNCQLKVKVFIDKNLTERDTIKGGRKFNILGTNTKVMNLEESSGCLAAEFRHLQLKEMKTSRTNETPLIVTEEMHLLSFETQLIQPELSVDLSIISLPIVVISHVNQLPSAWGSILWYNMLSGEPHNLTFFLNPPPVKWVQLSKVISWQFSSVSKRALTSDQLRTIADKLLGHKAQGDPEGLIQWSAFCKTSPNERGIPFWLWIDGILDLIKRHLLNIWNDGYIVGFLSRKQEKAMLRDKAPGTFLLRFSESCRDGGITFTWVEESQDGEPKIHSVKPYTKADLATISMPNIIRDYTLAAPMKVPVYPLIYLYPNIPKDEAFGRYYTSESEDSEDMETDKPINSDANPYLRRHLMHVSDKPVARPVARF

rStat1a [2] = molecular target: T2, rStat1a (Danio rerio (zebrafish), UniProt O93598 1-749); assay: as above; conditions: protein: recombinant; tags: His (pET-28a; Ni-NTA, anti-His); chain copies: 2; blunt
T2 sequence: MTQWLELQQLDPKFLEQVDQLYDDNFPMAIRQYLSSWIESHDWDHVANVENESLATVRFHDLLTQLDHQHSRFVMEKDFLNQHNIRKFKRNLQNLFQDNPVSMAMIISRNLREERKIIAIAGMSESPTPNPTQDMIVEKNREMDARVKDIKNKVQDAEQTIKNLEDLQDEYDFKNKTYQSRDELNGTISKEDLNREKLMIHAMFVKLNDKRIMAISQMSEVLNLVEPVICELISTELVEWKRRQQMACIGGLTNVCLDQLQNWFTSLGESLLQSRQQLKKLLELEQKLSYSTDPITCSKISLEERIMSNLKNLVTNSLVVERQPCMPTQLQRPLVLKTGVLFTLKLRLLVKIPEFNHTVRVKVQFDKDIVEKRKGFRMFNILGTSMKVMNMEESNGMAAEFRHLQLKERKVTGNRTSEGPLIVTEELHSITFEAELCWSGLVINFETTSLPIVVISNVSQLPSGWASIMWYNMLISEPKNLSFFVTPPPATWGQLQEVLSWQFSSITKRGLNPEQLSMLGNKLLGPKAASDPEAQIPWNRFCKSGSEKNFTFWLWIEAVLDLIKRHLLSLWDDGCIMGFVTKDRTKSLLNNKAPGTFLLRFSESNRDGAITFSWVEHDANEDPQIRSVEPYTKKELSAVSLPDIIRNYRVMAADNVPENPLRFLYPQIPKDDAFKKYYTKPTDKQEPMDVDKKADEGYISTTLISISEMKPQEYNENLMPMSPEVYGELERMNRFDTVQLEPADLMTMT

rStat1b [3] = molecular target: T1, rStat1b; assay: EMSA; poly(dI-dC); anti-His supershift; unlabeled probe competes; Beyotime GS009 EMSA/Gel-Shift binding buffer with poly(dI-dC), 25 C, 25 min preincubation then 30 min with 0.5 uM biotin probe (competitor stated as 0.5 uM), native 6% PAGE; salt and pH not stated; conditions: protein: recombinant; tags: His (pET-28a; Ni-NTA, anti-His); chain copies: 2; label: biotin on both strands (5'); blunt
rStat1a [4] = molecular target: T2, rStat1a; assay: as above; conditions: protein: recombinant; tags: His (pET-28a; Ni-NTA, anti-His); chain copies: 2; label: biotin on both strands (5'); blunt
rStat1b [5] = molecular target: T1, rStat1b; assay: competition; unlabeled competitor vs biotin P1 probe; little change; Beyotime GS009 EMSA/Gel-Shift binding buffer with poly(dI-dC), 25 C, 25 min preincubation then 30 min with 0.5 uM biotin probe (competitor stated as 0.5 uM), native 6% PAGE; salt and pH not stated; conditions: protein: recombinant; tags: His (pET-28a; Ni-NTA, anti-His); chain copies: 2; blunt
rStat1a [6] = molecular target: T2, rStat1a; assay: as above; conditions: protein: recombinant; tags: His (pET-28a; Ni-NTA, anti-His); chain copies: 2; blunt

B1: P2 mutant probe (dsDNA)
DNA 1: TTCAATGCACTAGGCCTTCTC
DNA 2: GAGAAGGCCTAGTGCATTGAA
B1: no binding (rStat1b [1]); no binding (rStat1a [2]).

B2: P2 GAS probe (dsDNA)
DNA 1: TTCAATTTACTAGAACTTCTC
DNA 2: GAGAAGTTCTAGTAAATTGAA
B2: binds (rStat1b [3]); binds (rStat1a [4]).

B3: P1 mutant probe (dsDNA)
DNA 1: AGACCAGCCCGGGGCAACCAA
DNA 2: TTGGTTGCCCCGGGCTGGTCT
B3: no binding (rStat1b [5]); no binding (rStat1a [6]).

B4: P1 GAS probe (dsDNA)
DNA 1: AGACCATTCCGGGAAAACCAA
DNA 2: TTGGTTTTCCCGGAATGGTCT
B4: binds (rStat1b [3]); binds (rStat1a [4]).
